Laboratory results published in IntAct's records for PubMed 16837009.

B1: Serine/threonine-protein kinase PAK 2 (Homo sapiens), Q13177 (parent)
chain: MSDNGELEDKPPAPPVRMSSTIFSTGGKDPLSANHSLKPLPSVPEEKKPRHKIISIFSGTEKGSKKKEKERPEISPPSDFEHTIHVGFDAVTGEFTGMPEQWARLLQTSNITKLEQKKNPQAVLDVLKFYDSNTVKQKYLSFTPPEKDGFPSGTPALNAKGTEAPAVVTEEEDDDEETAPPVIAPRPDHTKSIYTRSVIDPVPAPVGDSHVDGAAKSLDKQKKKTKMTDEEIMEKLRTIVSIGDPKKKYTRYEKIGQGASGTVFTATDVALGQEVAIKQINLQKQPKKELIINEILVMKELKNPNIVNFLDSYLVGDELFVVMEYLAGGSLTDVVTETCMDEAQIAAVCRECLQALEFLHANQVIHRDIKSDNVLLGMEGSVKLTDFGFCAQITPEQSKRSTMVGTPYWMAPEVVTRKAYGPKVDIWSLGIMAIEMVEGEPPYLNENPLRALYLIATNGTPELQNPEKLSPIFRDFLNRCLEMDVEKRGSAKELLQHPFLKLAKPLSSLTPLIMAAKEAMKSNR

Variants of: B1
Conditions: with limk1_human LIMK1, P53667
limk1_human LIMK1, P53667, sequence (P53667 whole entry, looked up): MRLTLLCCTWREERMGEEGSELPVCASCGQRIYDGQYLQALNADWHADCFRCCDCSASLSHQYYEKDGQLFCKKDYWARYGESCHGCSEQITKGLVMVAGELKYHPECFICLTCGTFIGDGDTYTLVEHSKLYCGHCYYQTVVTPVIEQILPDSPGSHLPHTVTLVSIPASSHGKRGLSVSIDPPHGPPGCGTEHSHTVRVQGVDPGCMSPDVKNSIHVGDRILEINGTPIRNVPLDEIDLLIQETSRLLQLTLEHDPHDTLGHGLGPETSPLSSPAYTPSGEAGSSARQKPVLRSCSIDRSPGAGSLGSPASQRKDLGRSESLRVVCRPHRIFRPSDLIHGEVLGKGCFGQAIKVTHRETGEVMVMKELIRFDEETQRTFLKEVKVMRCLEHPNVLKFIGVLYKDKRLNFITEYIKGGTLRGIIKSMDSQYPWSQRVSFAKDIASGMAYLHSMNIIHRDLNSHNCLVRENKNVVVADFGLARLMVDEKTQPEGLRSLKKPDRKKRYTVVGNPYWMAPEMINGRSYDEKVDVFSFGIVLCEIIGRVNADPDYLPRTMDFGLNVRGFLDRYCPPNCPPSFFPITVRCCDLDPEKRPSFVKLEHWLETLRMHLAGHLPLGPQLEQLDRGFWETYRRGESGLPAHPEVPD

Variant	effect of a mutation on the interaction
L449Q	increasing interaction
